From paper PMC10334784

Target: HCoV-OC43 nucleocapsid (N) protein, 2X-StrepTag tagged (HCoV-OC43) (UniProt P33469)
Experiment: BLI

Chain of HCoV-OC43 nucleocapsid (N) protein, 2X-StrepTag tagged (HCoV-OC43) (P33469 whole entry): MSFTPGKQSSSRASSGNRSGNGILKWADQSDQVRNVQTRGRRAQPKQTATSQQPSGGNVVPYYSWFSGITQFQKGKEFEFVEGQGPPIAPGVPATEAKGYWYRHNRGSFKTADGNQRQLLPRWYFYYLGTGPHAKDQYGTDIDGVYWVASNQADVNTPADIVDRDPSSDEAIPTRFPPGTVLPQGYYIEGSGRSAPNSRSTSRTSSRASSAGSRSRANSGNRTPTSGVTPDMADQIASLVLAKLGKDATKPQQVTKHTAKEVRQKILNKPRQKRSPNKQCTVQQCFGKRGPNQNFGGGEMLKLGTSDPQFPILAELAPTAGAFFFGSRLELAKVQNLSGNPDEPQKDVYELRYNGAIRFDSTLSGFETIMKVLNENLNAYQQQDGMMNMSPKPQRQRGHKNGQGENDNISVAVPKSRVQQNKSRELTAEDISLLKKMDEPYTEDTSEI

## CXCL4 (ligand)
  Kd: 170 nM
  koff: 0.00088 s⁻¹
  kon: 5300 M⁻¹ s⁻¹
